Measured values published in ChEMBL document CHEMBL1132473.

What was measured:
[1] = target: 4-aminobutyrate aminotransferase, mitochondrial (Sus scrofa) (UniProt P80147)
Description: (§1) Compound was tested for the inhibition of Gamma-amino-N-butyrate transaminase (GABA-AT)

[2] = test system: NC1C=CC(C(=O)O)C1
Description: as §1

[3] = test system: N[C@@H]1C=C[C@H](C(=O)O)C1
Description: as §1

[4] = test system: N[C@@H]1CC=C(C(=O)O)C1
Description: as §1

[5] = test system: N[C@@H]1C=C[C@@H](C(=O)O)C1
[6] = test system: N[C@H]1C=C[C@@H](C(=O)O)C1
[7] = test system: N[C@H]1CC=C(C(=O)O)C1

Chain of 4-aminobutyrate aminotransferase, mitochondrial (Sus scrofa), P80147 (P80147 whole entry): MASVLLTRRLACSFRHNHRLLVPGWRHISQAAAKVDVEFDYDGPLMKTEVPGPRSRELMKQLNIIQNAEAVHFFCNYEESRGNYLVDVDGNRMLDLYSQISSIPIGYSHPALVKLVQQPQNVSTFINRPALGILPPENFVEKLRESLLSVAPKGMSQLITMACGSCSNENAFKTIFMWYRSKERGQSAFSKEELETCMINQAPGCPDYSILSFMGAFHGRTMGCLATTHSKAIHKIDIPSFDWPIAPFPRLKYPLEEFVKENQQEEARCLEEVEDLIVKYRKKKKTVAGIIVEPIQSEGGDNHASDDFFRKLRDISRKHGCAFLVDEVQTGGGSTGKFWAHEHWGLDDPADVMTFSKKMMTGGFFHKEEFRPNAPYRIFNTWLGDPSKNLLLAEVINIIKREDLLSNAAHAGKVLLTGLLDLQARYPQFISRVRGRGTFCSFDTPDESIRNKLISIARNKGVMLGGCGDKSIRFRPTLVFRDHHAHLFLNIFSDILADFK
Chain of 4-aminobutyrate aminotransferase, mitochondrial (Sus scrofa) (P80147 whole entry): as above

`N[C@@H]1C=C[C@H](C(=O)O)C1` gave a k cat [1] of 0.195 s⁻¹.

`N[C@@H]1CC=C(C(=O)O)C1` gave a k cat [1] of 0.625 s⁻¹.

For “4-aminobutyrate aminotransferase, mitochondrial (Sus scrofa), P80147”, the Km [2] was 2300 µM, the Km [3] was 100 µM and the Km [4] was 1600 µM. For the same molecule, the Km [5] was “No turn over”, the Km [6] was “No turn over” and the Km [7] was “No turn over”.

In the case of `NC1C=CC(C(=O)O)C1` (racemic), the k cat [1] is reported as 0.667 s⁻¹.
